Data from the supplement of paper PMC12764529.
± gives the half width of the 95% confidence interval.

Legend:
[1] = folding stability dG unfold from trypsin proteolysis; higher = more stable
Outline: (§1)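 Unfolding free energy was derived, per protease or combined, against a sequence-predicted unfolded-state K50 and a shared folded-state K50, starting from K50 inferred by Bayesian fitting of sequencing counts. Digestion with trypsin and chymotrypsin was carried out on designed mini-proteins under 80 residues without cysteine in a PA-tagged cDNA display construct. Only designs with AlphaFold2 dimer inter-PAE above 15 were kept.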

[2] = folding stability dG unfold from chymotrypsin proteolysis; higher = more stable
Outline: as §1

[3] = folding stability dG unfold (combined trypsin and chymotrypsin); higher = more stable
Outline: as §1

| Sequence | folding stability dG unfold [1] | folding stability dG unfold [2] | folding stability dG unfold [3] |
| --- | --- | --- | --- |
| SAGGKIKIKSVEVQPNPDGMRKVTLEFQDGGKEHKVEIYVHPGGIMISIPNGKTRTIPWDDLDDIKLSAGGS [r16_593_TrROS] | 0.52 ± 0.093 kcal/mol | 1.22 ± 0.15 kcal/mol | 1.01 ± 0.18 kcal/mol |
| SAGGKIKIQFNGQEFTITEFEIIEPQPNKGGGPYYRIRIKFPNGPMEIMIPPNMPPEIKPGDTFTIASAGGS [r16_638_TrROS] | 1.797 ± 0.015 kcal/mol | 1.96 ± 0.032 kcal/mol | 1.93 ± 0.066 kcal/mol |
| SAGGKIPKNAKILEVEFDPETGYIRIKVEFYDKNGKLIKKAEITIPILPVPPLSPEDIEKLLKALASSAGGS [r16_697_TrMRF] | 3.15 ± 0.12 kcal/mol | 3.85 ± 0.17 kcal/mol | 3.59 ± 0.17 kcal/mol |
| SAGGKIPPGMKLEIEDINIEFYNNGWIKITVKMTIWAPDGKTMTMTMTIVIPIRPPPPPPNDPENNESAGGS [r8_90_TrROS] | 3.91 ± 0.45 kcal/mol | 4.77 ± 0.24 kcal/mol | 4.29 ± 0.44 kcal/mol |
| SAGGKKETVKVTLEIEVNGKKYKIELTKNKDGTVTIKITDKNGKKIEIEIPMSPEDVKKLLEELLKKLSAGG [r13_296_TrROS_Hall] | 2.17 ± 0.11 kcal/mol | 3.93 ± 0.094 kcal/mol | 3.56 ± 0.076 kcal/mol |
| SAGGKKFYVEVKINLKDKTIYLIKEVKPGNLEKLIKEIEKKGIKEAGIDEIKIFPKDGYIEIKGGEKSAGGS [r8_219_TrMRF] | 0.279 ± 0.061 kcal/mol | 1.18 ± 0.08 kcal/mol | 0.801 ± 0.1 kcal/mol |
| SAGGKKHYLVKVKATLTDKNGKKIAEVEFIFHFESPEELEEALKSIPSKYITEVKILSIEEIPEEEFSAGGS [r16_677_TrMRF] | 3.36 ± 0.18 kcal/mol | 3.65 ± 0.091 kcal/mol | 3.55 ± 0.18 kcal/mol |
| SAGGKKIEIKEGDTVKLKNATITLNGKTFKIKDAEAKVVKVDKKKKKVIIEITLKNGKKETFVFDIKSAGGS [r8_215_TrROS_Hall] | 2.4 ± 0.13 kcal/mol | 3.331 ± 0.026 kcal/mol | 3.15 ± 0.16 kcal/mol |
| SAGGKKKAKAYIVEKTTEKEGLKYYKVLIELGGKPLVFVIKSTSLEEVEEAIKKLAEELGVEVEIVPGSAGG [r13_750_TrMRF] | 3.77 ± 0.1 kcal/mol | 4.69 ± 0.089 kcal/mol | 4.53 ± 0.08 kcal/mol |
| SAGGKKKIKIIEKKKINGKTILKIEVDGKKIIIIKTPNKVYIFVIDKNGKKKVIEMSPEEALKKLIEKSAGG [r13_98_TrROS_Hall] | 2.08 ± 0.075 kcal/mol | 3.95 ± 0.042 kcal/mol | 3.59 ± 0.13 kcal/mol |
| SAGGKKKITITIEEVEELENGPLVYRVTIEVDGKTYEILIEADSLEEAKAAAEKLAEELNVEVTIEPVSAGG [r13_750_TrROS_Hall] | 2.55 ± 0.097 kcal/mol | 4.22 ± 0.048 kcal/mol | 3.86 ± 0.11 kcal/mol |
| SAGGKKKKKKPKIVRVKITLKNENGEEIEIDEAVILPDGTILIRDKKTGKIFEIKLDDITKIEIEEVSAGGS [r8_410_TrROS_Hall] | 1.99 ± 0.086 kcal/mol | 3.02 ± 0.098 kcal/mol | 2.8 ± 0.17 kcal/mol |
| SAGGKKKKLVIKDKKTNKYYEIENAKEIVKIEKVKGKDGKTYYVIYFKKTKKKIVIKTKEDLEKALKSAGGS [r8_206_TrROS_Hall] | 1.26 ± 0.24 kcal/mol | 1.18 ± 0.38 kcal/mol | 1.23 ± 0.29 kcal/mol |
| SAGGKKKKVKKIKVKVKIKLKNGEEVTITEAYVLPDGTVIIKVEVTKPDGSKETKTFTIPLKDIEIESAGGS [r16_498_TrROS_Hall] | 2.24 ± 0.075 kcal/mol | 3.7 ± 0.07 kcal/mol | 3.34 ± 0.11 kcal/mol |
| SAGGKKKLTLEIKIKVPKEEEEKAKEKAKKLAEELAKKLKEAGYKVKVTVEIDEETGEITVKVEVELPSAGG [r13_755_TrROS_Hall] | 2.84 ± 0.34 kcal/mol | 3.54 ± 0.55 kcal/mol | 3.43 ± 0.49 kcal/mol |
| SAGGKKKPKIRIKVEIDGKTVEVEVESPEELVEALKELGFEVEVVEVTEKTVVIKLKDGKLIRIEKESAGGS [r8_365_TrROS_Hall] | 1.91 ± 0.072 kcal/mol | 2.06 ± 0.026 kcal/mol | 2.02 ± 0.047 kcal/mol |
| SAGGKKKTIVLEVKVENLEEILKLAKEAAKAGDKVTVKVKLPDGEVYTVTVDVKTGKIVKVEKKKLPKSAGG [r13_873_TrROS_Hall] | 1.98 ± 0.097 kcal/mol | 3.3 ± 0.18 kcal/mol | 2.81 ± 0.2 kcal/mol |
| SAGGKKKVIEIKIEIKVPKEELKNMTKEEIAELLKKELEKKGIKIKKIEIVEIEIDGDTVTITIRIELSAGG [r13_432_TrROS_Hall] | 2.18 ± 0.15 kcal/mol | 2.92 ± 0.2 kcal/mol | 2.72 ± 0.3 kcal/mol |
| SAGGKKNEKKPIEIDGVFFNPETGKLVKIGPAKIIVPKNAKIELEAEVFDPVTGEVKKVKFKFELPAGSAGG [r13_206_TrMRF] | 0.548 ± 0.057 kcal/mol | 0.816 ± 0.094 kcal/mol | 0.699 ± 0.14 kcal/mol |
| SAGGKKNKPKPKVKVKILSVTANPDPNTPGLLSVSVPVLIESDDEEFALALAKELAKLPNVKVVVLGGSAGG [r13_606_TrMRF] | 1.34 ± 0.023 kcal/mol | 1.42 ± 0.037 kcal/mol | 1.42 ± 0.048 kcal/mol |
| SAGGKKVEITIEASPEEAEELAKKLEELFPDVKVEVVEVKPEEPVRVTVRVEVKVELSPEELKKLLESAGGS [r16_180_TrROS_Hall] | 1.45 ± 0.085 kcal/mol | 1.37 ± 0.11 kcal/mol | 1.4 ± 0.14 kcal/mol |

| Sequence | folding stability dG unfold [1] | folding stability dG unfold [2] | folding stability dG unfold [3] |
| --- | --- | --- | --- |
| SAGGKKVIITKVETNKNGKKTYTVTLYYKDKKTNEWKKVAEFTFESKEEAENAAKELAKKLNLKIIPSAGGS [r16_512_TrROS_Hall] | 3.08 ± 0.087 kcal/mol | 5 ± 0.088 kcal/mol | 4.77 ± 0.11 kcal/mol |
| SAGGKKVIVIEGLTEEEILEKIKEEFPEPVEVIIRRPDGYVVKITVDAKTREIKKVEVVKVPPPEKPSAGGS [r8_225_TrROS_Hall] | 1.57 ± 0.15 kcal/mol | 2.01 ± 0.16 kcal/mol | 1.79 ± 0.29 kcal/mol |
| SAGGKLIIVIEVNGETIEVDLEEAETLEEAIQKVLDEIRERFPEIGTVRIKVFDEKGKLIKEIEIKLKSAGG [r13_257_TrROS_Hall] | 3.25 ± 0.12 kcal/mol | 3.6 ± 0.18 kcal/mol | 3.51 ± 0.17 kcal/mol |
| SAGGKLLEELNVEKVEVVEVKEFSLPPLPLLVLLPTVTVTFKDGSKVKFKVLFLYDPSNPKPIVVAGSAGGS [r8_422_TrMRF] | 2.42 ± 0.1 kcal/mol | 3.64 ± 0.048 kcal/mol | 3.07 ± 0.16 kcal/mol |
| SAGGKLPKLPPGQIEIMDFQIEPDPDGRYKMSFMITITAPDNGKKVVVMLEMWMPPDGEMKTGIGIMPSAGG [r13_263_TrROS] | 1.9 ± 0.14 kcal/mol | 2.85 ± 0.15 kcal/mol | 2.65 ± 0.34 kcal/mol |
| SAGGKLTLELEFELEDGLRVRLRVEVDEDGELRVTLEVEPEPPPPPIRVVKNEDGSEYVYRNGKLYKLSAGG [r13_151_TrROS_Hall] | 3.55 ± 0.16 kcal/mol | 5.18 ± 0.45 kcal/mol | 4.16 ± 0.84 kcal/mol |
| SAGGKMVKIKIVVEVKVEEEVKEGEKVETFKVELTIELPEEEVEKLKAELEKLFPDVKIVEIEKVEPSAGGS [r8_490_TrROS_Hall] | 3.39 ± 0.24 kcal/mol | 3.86 ± 0.47 kcal/mol | 3.7 ± 0.34 kcal/mol |
| SAGGKNVKKYVPIEIEIEAPSPEVAEATAEEIEKIIREKFPGAKVEVEMEPLPDGGYKLKVKVYVPVGSAGG [r13_17_TrMRF] | 1.82 ± 0.059 kcal/mol | 3.47 ± 0.059 kcal/mol | 3.11 ± 0.07 kcal/mol |
| SAGGKPAKPTRLDFPDDDVKTVPANTKIILTRPDGSKLVIELPEEEFTAKPDEWVFETPTSKITFPIASAGG [r13_643_TrMRF] | 0.767 ± 0.092 kcal/mol | 0.657 ± 0.15 kcal/mol | 0.725 ± 0.21 kcal/mol |
| SAGGKPGEKPRIRIQVKVRYPGNGRKQSITIEIVPDAIEQGLSASELADEIARKMGMPVKIEEIEILSAGGS [r16_554_TrROS] | 1.873 ± 0.015 kcal/mol | 1.692 ± 0.013 kcal/mol | 1.79 ± 0.04 kcal/mol |
| SAGGKPKEIKIKVEVEEKEVNGKKYLVVKIELEVDGKKIEIELVVEMSEEEKEKAKKLAEELLKKLKSAGGS [r8_480_TrROS_Hall] | 2.6 ± 0.21 kcal/mol | 2.77 ± 0.22 kcal/mol | 2.82 ± 0.4 kcal/mol |
| SAGGKPLTVEDAKELAESLAKPLKEELGLGNVKILAAPVEVGGEEGKPAEVRIGFLFDLSEDGEFVGSAGGS [r16_751_TrMRF] | -0.405 ± 0.31 kcal/mol | 0.0162 ± 0.16 kcal/mol | -0.112 ± 0.23 kcal/mol |
| SAGGKPNWVWFKITINVTPEQLENMTLDEIADRVIDELMKLGFPIKKIEIDEIQWDGDRVTIYIRIRVSAGG [r13_432_TrROS] | 4.18 ± 0.16 kcal/mol | 4.59 ± 0.099 kcal/mol | 4.35 ± 0.14 kcal/mol |
| SAGGKPPGLSEIPLPDNKTEKVPVNSDIVLKRPDGTELKYKLPPEPVTTEKNKYTIKLPNGEITIPINSAGG [r13_643_JUSTAS] | -1.03 ± 0.26 kcal/mol | -0.0683 ± 0.26 kcal/mol | -0.0992 ± 0.32 kcal/mol |
| SAGGKPPKIVVKVEKAPNPETGTYTYKVVLYDPVTGKAYVKPVKTKTPEELEKKAKEVAEELAKELASAGGS [r8_480_TrMRF] | 0.727 ± 0.025 kcal/mol | 1.34 ± 0.12 kcal/mol | 1.17 ± 0.084 kcal/mol |
| SAGGKPRILLRRETAPDGRPYYVLQVLRRDPSDDGWTPVLEHRFETPEEAERYARELAEKTGYELVGSAGGS [r16_512_TrMRF] | 4 ± 0.11 kcal/mol | 4.9 ± 0.11 kcal/mol | 4.72 ± 0.075 kcal/mol |
| SAGGKRRTINFDIEGMTPEKFVHMARMAIRNLPDPEQVTITINMRNPMWRRWFIELAKELPGIEIEFMSAGG [r13_718_TrROS] | 2.52 ± 0.061 kcal/mol | 3.43 ± 0.044 kcal/mol | 3.19 ± 0.15 kcal/mol |
| SAGGKTIEVWFLFPPGMPPEEVASTIAKLLPPGFKIDVEILEVQPDPGGEDYIIFKATIYYPDDGQPISAGG [r13_12_TrROS] | 3.34 ± 0.15 kcal/mol | 4.68 ± 0.16 kcal/mol | 4.26 ± 0.25 kcal/mol |
| SAGGKTIPIWFRVPPGMTPEEAADELADEIANELQQQNGKEIEIKIDDVEPNPNGWNIVRIKIEVDPSAGGS [r8_156_TrROS] | 0.176 ± 0.3 kcal/mol | 0.433 ± 0.43 kcal/mol | 0.26 ± 0.32 kcal/mol |
| SAGGKTIYFPISEARNFLKEAIDNGLDNIRIEVFNGDKPREIDIPPGNLDDLIDNIPPNSWVQIEPKSAGGS [r16_636_TrROS] | -0.645 ± 0.095 kcal/mol | 0.536 ± 0.089 kcal/mol | 0.221 ± 0.072 kcal/mol |
